Assay [1] deals with T1, RNF41 isoform encoded by RNF41 transcript variant 2 (Accession number NM-194358), GST-tagged, on the … (human, UniProt Q5R7T5 72-317 (Pongo abelii entry)).
T1 construct: A bought array (Invitrogen); also called isoforms of RNF41; not shown: GST tag of the array protein
T1 sequence: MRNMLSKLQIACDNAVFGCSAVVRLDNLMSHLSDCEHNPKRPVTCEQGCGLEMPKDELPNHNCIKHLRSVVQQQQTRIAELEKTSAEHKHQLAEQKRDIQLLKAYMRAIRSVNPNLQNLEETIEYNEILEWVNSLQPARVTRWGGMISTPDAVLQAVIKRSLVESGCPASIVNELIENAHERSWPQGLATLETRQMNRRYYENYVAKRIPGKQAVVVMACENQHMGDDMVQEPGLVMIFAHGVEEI
Briefly: human protein microarray (ProtoArray v4.1), biotinylated probe, Streptavidin-Alexa Fluor647. As to the method:
Biotinylated purified soluble mClec9A-ecto and Cire (control) were diluted to 50 μg/ml in Casein Washing Buffer (Invitrogen) and hybridised to Human protein microarrays using the “ProtoArray Human Protein Microarray v4.1 Protein-Protein Interaction (PPI) kit for biotinylated proteins” (Invitrogen, #PAH05241011) as per manufacturer's instructions. Binding of the biotinylated proteins was detected using Streptavidin-Alexa Fluor647, and images acquired using a fluorescence microarray scanner (GenePix4000B scanner, Axon Instruments). Positive interactions were identified using the ProtoArray Prospector software (Invitrogen).

Assay [2] has as its target T2, Spectrin (purified from human erythrocytes, Sigma, #S3644) (human, UniProt P02549 1-2419; P11277 2-2137).
T2 construct: mature; A bought native preparation; also called purified spectrin
Nature of the assay: ELISA, spectrin coated, biotinylated soluble protein, SA-HRP. As to the method: ELISA plates (Costar, Broadway, Cambridge, UK) were coated overnight at 4° C. with […] of Spectrin (purified from human erythrocytes, Sigma, #S3644) or Actin (Sigma). Unbound proteins were washed away (PBS, 0.05% Tween-20), and the ELISA plates blocked with PBS, 1% BSA. Serially diluted biotinylated purified mClec9A-ecto, mClec9A-CTLD and Cire soluble proteins were plated (PBS, 1% BSA) and incubated at 4° C. overnight. Bound soluble proteins were detected using Streptavidin-HRP and visualised using ABTS.
(An ELISA detects its analyte on a solid surface through an enzyme-linked reagent.)

Assay [3] has as its target T3, membrane bound mouse 5B6 on transiently transfected 293T cells (full length untagged m5B6, pIRES-Neo) (mouse).
T3 construct: also called mouse Clec9A
T3 chain: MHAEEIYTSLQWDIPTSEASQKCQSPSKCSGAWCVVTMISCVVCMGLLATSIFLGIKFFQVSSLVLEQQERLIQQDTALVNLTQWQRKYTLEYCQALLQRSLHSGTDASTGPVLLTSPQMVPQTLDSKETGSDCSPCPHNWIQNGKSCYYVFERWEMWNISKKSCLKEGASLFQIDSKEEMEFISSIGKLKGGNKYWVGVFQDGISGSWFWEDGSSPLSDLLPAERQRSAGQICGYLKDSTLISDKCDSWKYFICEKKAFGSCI
Briefly: flow cytometry on transiently transfected live 293T cells, soluble FLAG-tagged protein. The text has this:
(§1) Two-three days later, cells were harvested and surface immunofluorescence labeled using either (1) soluble FLAG-tagged biotinylated m5B6, h5B6 and Cire, and detected with Streptavidin PE, or (2) soluble FLAG-tagged 5B6, biotinylated anti-FLAG mAb 9H10, and Streptavidin-PE. Live cells were gated on forward and side scatter, or by propidium iodide exclusion and analysed for their surface binding of soluble 5B6.
For orientation: Flow cytometry measures light scatter and fluorescence of single cells or particles in a stream.

For assay [4], the target named is T4, membrane bound human 5B6 on transiently transfected 293T cells (full length untagged h5B6, pIRES-Neo) (human, UniProt Q6UXN8 1-241).
T4 construct: also called human CLEC9A
The description is as above.
Excerpt: as §1

Assay [5] deals with T5, GST-RNF41FL (full length RNF41 as glutathione S-transferase fusion protein) (human, UniProt Q5R7T5 1-317 (Pongo abelii entry)).
T5 construct: Expressed in BL21 (DE3) E. coli, solubilised with Sarcosyl and immobilised on Glutathione-Sepharose 4B; also called GST-RNF41 fusion protein; not shown: glutathione S-transferase (GST) of a modified pGEX-2T vector (GE Healthcare)
T5 sequence: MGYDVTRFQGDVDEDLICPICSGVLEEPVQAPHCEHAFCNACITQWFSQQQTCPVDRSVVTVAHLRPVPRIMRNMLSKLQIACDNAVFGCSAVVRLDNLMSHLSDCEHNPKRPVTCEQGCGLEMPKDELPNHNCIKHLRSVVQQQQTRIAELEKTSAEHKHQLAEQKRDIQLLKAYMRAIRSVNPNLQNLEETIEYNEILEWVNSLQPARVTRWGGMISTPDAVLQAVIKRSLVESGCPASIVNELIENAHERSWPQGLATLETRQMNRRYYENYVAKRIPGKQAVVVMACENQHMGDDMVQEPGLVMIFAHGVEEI
Nature of the assay: pull-down on glutathione beads, anti-FLAG Western blot. As to the method:
(§2) Glutathione Sepharose resin coupled with either GST or GST-RNF41 proteins was resuspended in the binding buffer (0.2% NP-40 and 2% glycerol in 20 mM Tris-buffered saline, pH 7.5 containing complete protease inhibitor cocktail mixture (Roche) and 1 mM PMSF) and mixed with 1 μg/m purified FLAG-tagged soluble Clec9A (also in binding buffer) and incubated at 4° C. on a rotating wheel for 2 hours. The beads were washed extensively with the binding buffer to remove unbound proteins. Bound proteins were eluted from the beads by the addition of 2×SDS reducing sample and heated at 92° C. for 5 minutes. The eluted proteins were separated by SDS-PAGE followed by Western blot with anti-FLAG antibody.
(§3) The inventors subcloned and expressed full length RNF41 (RNF41FL), and RNF41 transcript variant 2 (RNF41₇₂₋₃₁₇) as GST-RNF41 fusion proteins in bacterial cells. The fusion proteins were immobilized onto glutathione beads, and incubated with mClec9A-ecto or with the control mClec12A-ecto. mClec9A-ecto directly bound to both GST-RNF41FL and GST-RNF41₇₂₋₃₁₇, but not to GST alone (FIG. 13). […] This confirmed that mClec9A binds specifically to RNF41.
Background: A western blot detects proteins with antibodies after separation by electrophoresis.

In assay [6] the target is T6, GST-RNF41 72-317 (RNF41 transcript variant 2 as glutathione S-transferase fusion protein) (human, UniProt Q5R7T5 72-317 (Pongo abelii entry), N-terminal GST fusion, immobilised on Glutathione-Sepharose beads; carrier not in the letters).
T6 construct: Expressed in BL21 (DE3) E. coli and immobilised on Glutathione-Sepharose 4B; not shown: GST carrier (glutathione S-transferase of the modified pGEX-2T vector) and any linker at the N end
T6 sequence: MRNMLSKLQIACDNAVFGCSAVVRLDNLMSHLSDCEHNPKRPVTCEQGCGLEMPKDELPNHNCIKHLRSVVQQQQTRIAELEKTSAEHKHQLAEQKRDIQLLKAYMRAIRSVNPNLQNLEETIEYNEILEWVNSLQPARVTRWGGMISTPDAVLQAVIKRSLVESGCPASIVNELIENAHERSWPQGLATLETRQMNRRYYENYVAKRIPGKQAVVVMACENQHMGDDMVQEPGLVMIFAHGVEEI
The description is as above. As to the method:
as §2, §3

Assay [7] has as its target T7, GST protein (control, plasmid control) (UniProt P08515 1-218 = GST).
T7 construct: also called GST alone; GST control
The description is as above. As to the method:
as §2, §3

Here are results for four molecules from US20120039806A1 (BURNET INSTITUTE, published 2012).

T4 sequence (Q6UXN8 whole entry): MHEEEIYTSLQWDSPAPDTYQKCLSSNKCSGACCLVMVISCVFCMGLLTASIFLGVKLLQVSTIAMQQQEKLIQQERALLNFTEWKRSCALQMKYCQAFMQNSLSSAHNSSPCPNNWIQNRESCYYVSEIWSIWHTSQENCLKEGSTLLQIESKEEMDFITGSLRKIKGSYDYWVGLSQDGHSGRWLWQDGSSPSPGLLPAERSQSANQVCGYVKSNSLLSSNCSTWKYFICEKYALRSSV
T7 sequence (P08515 whole entry): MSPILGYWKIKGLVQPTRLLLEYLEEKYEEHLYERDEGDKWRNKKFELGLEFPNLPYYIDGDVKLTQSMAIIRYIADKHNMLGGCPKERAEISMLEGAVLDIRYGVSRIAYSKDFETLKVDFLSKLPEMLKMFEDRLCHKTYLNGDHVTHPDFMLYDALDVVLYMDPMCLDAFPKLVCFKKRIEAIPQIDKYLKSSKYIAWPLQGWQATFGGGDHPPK

B1: Cire-ecto (soluble FLAG-tagged C-type lectin Cire, control) (receptor, mouse, not shown: small tags and cut ends)
chain (part 1 of 2): NSGLHHILDAQKMVWNHR
chain (part 2 of 2): VKVYKIPSSQEENNQMNVYQELTQLKAGVDRLCRSCPWDWTHFQGSCYFFSVAQKSWNDSATACHNVGAQLVVIKSDEEQNFLQQTSKKRGYTWMGLIDMSKESTWYWVDGSPLTLSFMKYWSKGEPNNLGEEDCAEFRDDGWNDTKCTNKKFWICKKLSTSCPSK
modifications: biotinylated with BirA where the filing says 'biotinylated' (ELISA, microarray)
notes: extracellular domain; Control lectin; The construct is described only as similar to the Clec9A constructs; also called mouse Cire/mDCSign; biotinylated Cire-ecto
With B1, the binding result was “no binding (tested: 50 µg/ml)” in assay [1] and “no binding” in assay [2].

B2: hCLEC9A-ecto (tagged soluble ectodomain human Clec9A; stalk and CTLD) (receptor)
chain: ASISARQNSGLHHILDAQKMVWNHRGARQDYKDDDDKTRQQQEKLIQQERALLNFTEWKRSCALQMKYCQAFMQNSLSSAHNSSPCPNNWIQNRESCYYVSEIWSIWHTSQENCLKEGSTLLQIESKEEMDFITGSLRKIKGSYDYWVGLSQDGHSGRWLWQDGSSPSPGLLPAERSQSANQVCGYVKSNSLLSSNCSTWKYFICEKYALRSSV
notes: also called soluble FLAG-tagged h5B6; soluble human 5B6
For the molecule B2, the binding result in assay [3] and in assay [4] was “binds” in each case.

B3: mClec12A-ecto (soluble FLAG-tagged mouse Clec12A, control) (receptor, not shown: small tags and cut ends)
chain (part 1 of 2): NSGLHHILDAQKMVWNHR
chain (part 2 of 2): YTTLATEMIKSNQLQRAKEELQENVFLQLKHNLNSSKKIKNLSAMLQSTATQLCRELYSKEPEHKCKPCPKGSEWYKDSCYSQLNQYGTWQESVMACSARNASLLKVKNKDVLEFIKYKKLRYFWLALLPRKDRTQYPLSEKMFLSEESERSTDDIDKKYCGYIDRVNVYYTYCTDENNIICEETASKVQLESVLNGLPEDSR
notes: extracellular domain; Control lectin
For B3, the binding result in assay [5] and in assay [6] was “no binding (tested: 1 µg/m)” in each case.

B4: mClec9A-ecto (tagged soluble ectodomain mouse Clec9A; stalk and CTLD) (receptor)
chain: ASISARQNSGLHHILDAQKMVWNHRGARQDYKDDDDKTREQQERLIQQDTALVNLTQWQRKYTLEYCQALLQRSLHSGTDASTGPVLLTSPQMVPQTLDSKETGSDCSPCPHNWIQNGKSCYYVFERWEMWNISKKSCLKEGASLFQIDSKEEMEFISSIGKLKGGNKYWVGVFQDGISGSWFWEDGSSPLSDLLPAERQRSAGQICGYLKDSTLISDKCDSWKYFICEKKAFGSCI
modifications: enzymatically biotinylated with BirA at the biotinylation consensus sequence where the filing says 'biotinylated' (ELISA, protein microarray); unbiotinylated FLAG-tagged protein in the pull-down and in FIG. 6
notes: also called soluble FLAG-tagged m5B6; soluble mouse 5B6
With B4, the binding result in assay [3] is “binds”; in assay [4] it was “binds”; in assay [7] it was “no binding (tested: 1 µg/m)”.
